The text below walks through data of the supplement of paper PMC9170038.

The subject of this data set is MS2 coat protein. The data set can be described thus: apparent KD of MS2 coat protein; designed switch direction (-1 OFF switch, 1 ON switch): -1; higher = weaker reporter binding. A digest of the protocol: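 The buffer was Tris-HCl pH 7.5 with KCl, MgCl2, BSA, DTT, tRNA and Tween-20. In it, SNAP-549-labelled MS2 coat protein was titrated in doubling steps from 0.7 or 1.5 nM to 3 µM over chip-bound RNA switches transcribed by stalled E. coli RNA polymerase on Illumina chips. Apparent KD is the per-design median over clusters of curve fits to normalised fluorescence.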

The mark [1] stands for this setting: input ligand: microRNA oligo, concentration not stated.
The mark [2] stands for this setting: Eterna round: R95, input ligand: microRNA oligo, concentration not stated.
[3] abbreviates: Eterna round: R95, input ligand: FMN 200 uM.
[4] abbreviates: Eterna round: R95, input ligand: none.

“UAUUAGCAAGCGAAAUCCCACAUGAGGAUCACCCAUGUAAAUAAAAGCUCCAGAAUUACUGGAGCAGCUCGUCUUAU [Winner reversed engineered 18] (Eterna round: R97, puzzle: Sensor, turn-off variant 1)”: the “apparent KD of MS2 coat protein” value (input ligand: FMN 200 uM) came out at 29.8 nM and the “apparent KD of MS2 coat protein” value (input ligand: none) was 24.5 nM.

Take “AAAAGGUGAGGAUAUUCAAGGAAAGACAUGAGGAUCACCCAUGUAAGAAAGGAAAAGGGAGGAGAAGGUGUGAAAA [salish99_ex5_r4_136] (Eterna round: R97, puzzle: Exclusion 5)”: the “apparent KD of MS2 coat protein” value came to 62.1 nM (input ligand: FMN 200 uM) and 60.2 nM (input ligand: none).

“CGUCUGUAAGGAUAUGGUUACAUAGACAUGAGGAUCACCCAUGUUACGUGGGACUAGUGAUUAGAAGGUACGAACG [EX5 #67] (Eterna round: R97, puzzle: Exclusion 5)”: the “apparent KD of MS2 coat protein” value came to 54.7 nM (input ligand: FMN 200 uM) and 51.2 nM (input ligand: none).

As to “UUUUUUUUGCGAGGAUAUGCUUUUAGUAAGUUAGCAGAAGGCGCGUUACAUAGAACCUCUUCUUACAUGAGGAUCACCCAUGUU [JR_ExcNG1_Sub035] (Eterna round: R96, puzzle: Exclusion NG 1)”, the “apparent KD of MS2 coat protein” value (input ligand: FMN 200 uM) is 95.6 nM, the “apparent KD of MS2 coat protein” value under setting [1] was found to be 56 nM and the “apparent KD of MS2 coat protein” value (input ligand: none) was 61.9 nM.

On to “AUUGUGUUAGGAUAUGCUUAUGGUGGGUAGUCCAGUAUGAAGUAGAAGGGACAUGAGGAUCACCCAUGUGCUGA [EX4 #36] (Eterna round: R97, puzzle: Exclusion 4)”, for which the “apparent KD of MS2 coat protein” value by setting is: (input ligand: FMN 200 uM) 136 nM; (input ligand: none) 164 nM.

As for “CGUCAGUGAGGAUAUGGUAACGUUUACAUGAGGAUCACCCAUGUUUCAUGGGACUAGAGACUAGAAGGCACUGACG [JR_Ex5_Sub030] (Eterna round: R97, puzzle: Exclusion 5)”, the “apparent KD of MS2 coat protein” value worked out at 439 nM (input ligand: FMN 200 uM) and 416 nM (input ligand: none).

On to “AUUAUGUAAGGAUAUCUUACAUGUGACUUCGGUCACUGUCAAGAGAAGGUACAUGAGGAUCACCCAUGUAUGAC [Ex4-3: 49] (puzzle: Exclusion 4)”, for which the “apparent KD of MS2 coat protein” value under setting [2] was 14.2 nM.

Consider “AGUAACUAUCACGAAAGUGAUAGUUACACAAGCAGUGGAACAUGAGGAUCACCCAUGUCCUCAUUUGCUCGUCUUAU [Sensor 3 - 27] (puzzle: Sensor v3, turn-off variant 2)”, for which the “apparent KD of MS2 coat protein” value by setting is: under setting [3], 35.5 nM; under setting [2], 19.6 nM; under setting [4], 42.2 nM.

Turning to “GCAGGCGUCUAGGCUCGUCUUAUUUUGAGAGGAUUGAUAACAUGAGGAUCACCCAUGUUUGUGGGAGAGUUGCAGUG [JR_SV3TOV2_Sub015] (puzzle: Sensor v3, turn-off variant 2)”, the “apparent KD of MS2 coat protein” value is, setting by setting: under setting [3], 121 nM; under setting [2], 241 nM; under setting [4], 143 nM.

For “GACUUCUGAGGAUAUACAUAGAUUUACAUGAGGAUCACCCAUGUUCCUCUAUGUAUAAAUGUAGAAGGCAGAAGAG [Mat - Exclusion 5 - JL Mod - D65] (Eterna round: R97, puzzle: Exclusion 5)”, the “apparent KD of MS2 coat protein” value is 70.7 nM (input ligand: FMN 200 uM) and 19.7 nM (input ligand: none).

Turning to “GGGUGCAAGCUAAGAUCCUACAUGAGGAUCACCCAUGUGGUCCGGUGACGUGAGUCACCGGACUUAGCUCGUCUUGU [salish99_S_TOV1_R5_004] (Eterna round: R97, puzzle: Sensor, turn-off variant 1)”, the “apparent KD of MS2 coat protein” value runs as follows: (input ligand: FMN 200 uM) 91.2 nM; (input ligand: none) 95.6 nM.

In the case of “AAUACAAGCUAUUGAUCCCACAUGAGGAUCACCCAUGUAGGAGGCCGUGAGACCUCCUUUACGAUAGCUCGUCUUAU [Sensor-V1 #52] (Eterna round: R97, puzzle: Sensor, turn-off variant 1)”, the “apparent KD of MS2 coat protein” value runs as follows: (input ligand: FMN 200 uM) 211 nM; (input ligand: none) 208 nM.

Consider “UUUUAGAGAGGAUAUAUGAUGUGAAACAUGAGGAUCACCCAUGUAAUAUUAUGGAUGUAAAUAGAAGGCUCAUUUA [JL-ex5-3.05] (puzzle: Exclusion 5)”, for which the “apparent KD of MS2 coat protein” value under setting [3] came to 38.8 nM, the “apparent KD of MS2 coat protein” value under setting [2] turned out to be 63.3 nM and the “apparent KD of MS2 coat protein” value under setting [4] turned out to be 69.1 nM.

On to “GGAUCUACUGAGGAUAUUAUAUCACCCGACUGAUAAGAAGGCAGUACAUGAGGAUCACCCAUGUGGGUAGCCAC [Polaris7] (Eterna round: R97, puzzle: Exclusion 6)”, for which the “apparent KD of MS2 coat protein” value (input ligand: FMN 200 uM) stood at 79.6 nM and the “apparent KD of MS2 coat protein” value (input ligand: none) amounted to 99.4 nM.

As to “GGUCUGCGAGGAUAUACAUGAGGAUCACCCAUGUGCGAGUUACUUGUGAGGUCGGUUGGUAGAAGGCGCGGACG [JL-ex3-2.10 salish99 mod] (puzzle: Exclusion 3)”, the “apparent KD of MS2 coat protein” value turned out to be 51.9 nM under setting [3], 68.6 nM under setting [2] and 86.8 nM under setting [4].

In the case of “UUAUAUAGUGUGAGGAUAUGCUGGUCCUUGGAUCAGCAGAAGGCACAUGAGGAUCACCCAUGUAAUAUAUUAUU [JL bmx4 3.07] (puzzle: Brourd's mod of Exclusion 4)”, the “apparent KD of MS2 coat protein” value under setting [2] is 58.2 nM.

For the sequence “GGAGGACGAGCAGGAUAUUUUUACAUGAGGAUCACCCAUGUGUACUCAGGGUAAUCCUCCGCCGAAAAGAAGGGUUCGGAAGAA [JL ViennaUCT Socedi mod 4] (Eterna round: R96, puzzle: Exclusion NG 2)”, the “apparent KD of MS2 coat protein” value is, setting by setting: (input ligand: FMN 200 uM) 124 nM; under setting [1], 41.6 nM; (input ligand: none) 63.2 nM.

On to “AAGAAGCGAGGAUAUACAGGCGGCGACAUGAGGAUCACCCAUGUGGUGGCCCACGCCGUGGUAGAAGGCGUUAAAG [Ordiceinri] (Eterna round: R97, puzzle: Exclusion 5)”, for which the “apparent KD of MS2 coat protein” value by setting is: (input ligand: FMN 200 uM) 228 nM; (input ligand: none) 245 nM.

“GGGAUGUCAGGAUAUCCAAAAGUCUGCCAAUACAGCAGACAGGAGAAGGGACAUGAGGAUCACCCAUGUAAAGA [Atonis] (puzzle: Exclusion 4)”: the “apparent KD of MS2 coat protein” value under setting [2] is 33.5 nM.

As to “AAAUGACAUGAGGAUCACCCAUGUGGCCCUUAGACUCAUAUCGAGGAUAUCCAGGGCCGGGCCGUGGAGAAGGCGAAUUAAAAU [Edatriusti] (Eterna round: R96, puzzle: Exclusion NG 3)”, the “apparent KD of MS2 coat protein” value runs as follows: (input ligand: FMN 200 uM) 32.1 nM; under setting [1], 26.1 nM; (input ligand: none) 40.6 nM.

As to “AAGAGGAUCAAAGGAUAUGGAGCUGAAACGGCGCUAGAAGGUUGUCCAGUGUAACAUGAGGAUCACCCAUGUAGGGACCUCUAA [AK ExNG1-V2-3] (Eterna round: R96, puzzle: Exclusion NG 1)”, the “apparent KD of MS2 coat protein” value runs as follows: (input ligand: FMN 200 uM) 100 nM; under setting [1], 57.5 nM; (input ligand: none) 42.9 nM.

As to “CUCAUGUCAGGAUAUCUACAUUAAAUUGGUAACCAAGCAUGAGAGAAGGGACAUGAGGAUCACCCAUGUAAAAC [Cegeange] (Eterna round: R97, puzzle: Exclusion 4)”, the “apparent KD of MS2 coat protein” value (input ligand: FMN 200 uM) is 44 nM and the “apparent KD of MS2 coat protein” value (input ligand: none) turned out to be 27.5 nM.

For the sequence “AACCAGAUGAAACACAGGCACAUGAGGAUCACCCAUGUCUUAGAGCAUUCGGGUAAUCGGCUCGUUUUAAUUAGAAC [Eternabot (L1) Solution 22] (Eterna round: R97, puzzle: Sensor, turn-off variant 1)”, the “apparent KD of MS2 coat protein” value by setting is: (input ligand: FMN 200 uM) 279 nM; (input ligand: none) 344 nM.

“GAUCAUGCAGGAUAUACAUGGAUCAUGAAAACAUGGAUUUCACAUGAGGAUCACCCAUGUAGAAGGGCAUGAUC [Omei Ex2 A10] (Eterna round: R97, puzzle: Exclusion 2)”: the “apparent KD of MS2 coat protein” value (input ligand: FMN 200 uM) worked out at 47.5 nM and the “apparent KD of MS2 coat protein” value (input ligand: none) stood at 141 nM.

Regarding “CCUUGGUGAGGAUAUUGAAAAUCUGUCAUAUGCCGACAACUCAAGAAGGUACAUGAGGAUCACCCAUGUUGGGC [Eternabot (Original) Solution 18] (Eterna round: R97, puzzle: Exclusion 4)”, the “apparent KD of MS2 coat protein” value (input ligand: FMN 200 uM) was determined as 107 nM and the “apparent KD of MS2 coat protein” value (input ligand: none) was 102 nM.

“UCAUGGGAGGCAGCUGCCCACAUGAGGAUCACCCAUGUUUUAGACAAACGGGUACAAGCUUUUAAUGCUCUUCUUUG [Eternabot (L2) Solution 49] (Eterna round: R97, puzzle: Sensor, turn-off variant 1)”: the “apparent KD of MS2 coat protein” value was determined as 587 nM (input ligand: FMN 200 uM) and 248 nM (input ligand: none).

As to “GUCUAACAUGAGGAUCACCCAUGUCAGGAUAUGCGAAUUUCAUCAAAAGAUGAAAUUUGCAGAAGGGACUAGAC [Omei Ex1 A28] (Eterna round: R97, puzzle: Exclusion 1)”, the “apparent KD of MS2 coat protein” value (input ligand: FMN 200 uM) is 26.6 nM and the “apparent KD of MS2 coat protein” value (input ligand: none) turned out to be 24.1 nM.

As to “CCCAGAUAGGAAGGAUAUUGUACAUGAGGAUCACCCAUGUAAUAAAUGAGGAUCACGGAUGUAGACAAGAAGGUCCGGAUAAGC [Ostracism 6 - Jieux - Exclusion NG 2] (Eterna round: R96, puzzle: Exclusion NG 2)”, the “apparent KD of MS2 coat protein” value stood at 57.5 nM (input ligand: FMN 200 uM), 29.3 nM under setting [1] and 39.5 nM (input ligand: none).

On to “AGUACUAACACGAAUGUGUUAGUACAAUAAGCUUGUGAAACAUGAGGAUCACCCAUGUCCUCAUAAGCUCGUCUUAU [salish99_TOv2_r3_032] (puzzle: Sensor v3, turn-off variant 2)”, for which the “apparent KD of MS2 coat protein” value under setting [3] came out at 16.3 nM, the “apparent KD of MS2 coat protein” value under setting [2] was found to be 779 nM and the “apparent KD of MS2 coat protein” value under setting [4] is 15.5 nM.

With “UCACGGGACUAAGGAUAUACAUGAACUAUUAUUGUAGAAGGUAGAAUGUUAGCUUAUACACUAAACAUGAGGAUCACCCAUGUA [JR_ExcNG1_Sub095] (Eterna round: R96, puzzle: Exclusion NG 1)”, under setting [1], the “apparent KD of MS2 coat protein” value turned out to be 26.9 nM.

Take “UGAAAACAUGAGGAUCACCCAUGUAAGGAUAUGCAAAAGGAUAUAGAAGGAAAAAAAAGCAGAAGGUACAAAGG [salish99-ex1_r3_095] (puzzle: Exclusion 1)”: the “apparent KD of MS2 coat protein” value by setting is: under setting [3], 99.4 nM; under setting [2], 86.6 nM; under setting [4], 60.3 nM.
